Experimental findings from publication PMC3553014, “Albumin Stimulates the Activity of the Human UDP-Glucuronosyltransferases 1A7, 1A8, 1A10, 2A1 and 2B15, but the Effects Are Enzyme and Substrate Dependent” (PLoS ONE, 2013) are described below.

One data set concerns the target T1, UGT1A8 (Homo sapiens, UniProt Q9HAW9).
T1 sequence (Q9HAW9 26-530): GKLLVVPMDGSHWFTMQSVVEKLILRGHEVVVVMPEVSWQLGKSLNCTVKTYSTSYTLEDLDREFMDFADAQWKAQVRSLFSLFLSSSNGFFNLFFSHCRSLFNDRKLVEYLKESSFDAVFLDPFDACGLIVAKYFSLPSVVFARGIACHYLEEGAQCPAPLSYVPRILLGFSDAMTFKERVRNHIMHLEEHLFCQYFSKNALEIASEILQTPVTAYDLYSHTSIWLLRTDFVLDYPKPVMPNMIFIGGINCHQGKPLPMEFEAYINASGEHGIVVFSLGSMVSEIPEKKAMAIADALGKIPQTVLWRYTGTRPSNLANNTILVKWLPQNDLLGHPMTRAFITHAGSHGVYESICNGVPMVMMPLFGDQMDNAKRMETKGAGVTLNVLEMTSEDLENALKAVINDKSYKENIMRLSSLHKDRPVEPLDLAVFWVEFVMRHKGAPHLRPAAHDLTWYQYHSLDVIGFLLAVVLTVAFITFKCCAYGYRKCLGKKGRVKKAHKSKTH
Put plainly: UGT1A8-catalyzed glucuronidation, enzyme kinetics. To be noted: 1% DMSO; entacapone glucuronidation; absence and presence of 0.1% BSA.

Substrate in data set [1]: Cc1cc(=O)oc2cc(O)ccc12
Put plainly: purified protein, by the assay type. To be noted: pH 7.4.

Substrate in data set [2]: Oc1cccc2ccccc12
Put plainly: purified protein, by the assay type. To be noted: pH 7.4.

Substrate in data set [3]: CCN(CC)C(=O)/C(C#N)=C/c1cc(O)c(O)c([N+](=O)[O-])c1
Briefly: purified protein, by the assay type. To be noted: pH 7.4.

As for `C[S+](C)[O-]` [DMSO, Dimethyl sulfoxide], the “reduction of the UGT activity” value at UGT1A8 is given as ≤ 15%.

B1: UGT1A1 (Homo sapiens) (protein)
chain: HAGKILLIPVDGSHWLSMLGAIQQLQQRGHEIVVLAPDASLYIRDGAFYTLKTYPVPFQREDVKESFVSLGHNVFENDSFLQRVIKTYKKIKKDSAMLLSGCSHLLHNKELMASLAESSFDVMLTDPFLPCSPIVAQYLSLPTVFFLHALPCSLEFEATQCPNPFSYVPRPLSSHSDHMTFLQRVKNMLIAFSQNFLCDVVYSPYATLASEFLQREVTVQDLLSSASVWLFRSDFVKDYPRPIMPNMVFVGGINCLHQNPLSQEFEAYINASGEHGIVVFSLGSMVSEIPEKKAMAIADALGKIPQTVLWRYTGTRPSNLANNTILVKWLPQNDLLGHPMTRAFITHAGSHGVYESICNGVPMVMMPLFGDQMDNAKRMETKGAGVTLNVLEMTSEDLENALKAVINDKSYKENIMRLSSLHKDRPVEPLDLAVFWVEFVMRHKGAPHLRPAAHDLTWYQYHSLDVIGFLLAVVLTVAFITFKCCAYGYRKCLGKKGRVKKAHKSKTH
One may read the Vmax as the rate approached at saturating substrate. In the case of B1, in data set [1], the K0.5 was 72.6±6.9(58.2–87.0) uM and the Vmax stood at 0.00011 µmol/min/mg. Besides, in data set [2], the K0.5 is 101±11(78–123) uM.

B2: UGT2B7 (Homo sapiens) (protein)
chain: GKVLVWAAEYSHWMNIKTILDELIQRGHEVTVLASSASILFDPNNSSALKIEIYPTSLTKTELENFIMQQIKRWSDLPKDTFWLYFSQVQEIMSIFGDITRKFCKDVVSNKKFMKKVQESRFDVIFADAIFPCSELLAELFNIPFVYSLSFSPGYTFEKHSGGFIFPPSYVPVVMSELTDQMTFMERVKNMIYVLYFDFWFEIFDMKKWDQFYSEVLGRPTTLSETMGKADVWLIRNSWNFQFPYPLLPNVDFVGGLHCKPAKPLPKEMEDFVQSSGENGVVVFSLGSMVSNMTEERANVIASALAQIPQKVLWRFDGNKPDTLGLNTRLYKWIPQNDLLGHPKTRAFITHGGANGIYEAIYHGIPMVGIPLFADQPDNIAHMKARGAAVRVDFNTMSSTDLLNALKRVINDPSYKENVMKLSRIQHDQPVKPLDRAVFWIEFVMRHKGAKHLRVAAHDLTWFQYHSLDVIGFLLVCVATVIFIVTKCCLFCFWKFARKAKKGKND
Turning to B2, in data set [1], the K0.5 is on record as 301±65(165–436) uM and the maximum rate (Vmax) came to 0.00028 µmol/min/mg.

B3: UGT1A10 (Homo sapiens) (protein)
chain: GKLLVVPMDGSHWFTMQSVVEKLILRGHEVVVVMPEVSWQLERSLNCTVKTYSTSYTLEDQNREFMVFAHAQWKAQAQSIFSLLMSSSSGFLDLFFSHCRSLFNDRKLVEYLKESSFDAVFLDPFDTCGLIVAKYFSLPSVVFTRGIFCHHLEEGAQCPAPLSYVPNDLLGFSDAMTFKERVWNHIVHLEDHLFCQYLFRNALEIASEILQTPVTAYDLYSHTSIWLLRTDFVLDYPKPVMPNMIFIGGINCHQGKPLPMEFEAYINASGEHGIVVFSLGSMVSEIPEKKAMAIADALGKIPQTVLWRYTGTRPSNLANNTILVKWLPQNDLLGHPMTRAFITHAGSHGVYESICNGVPMVMMPLFGDQMDNAKRMETKGAGVTLNVLEMTSEDLENALKAVINDKSYKENIMRLSSLHKDRPVEPLDLAVFWVEFVMRHKGAPHLRPAAHDLTWYQYHSLDVIGFLLAVVLTVAFITFKCCAYGYRKCLGKKGRVKKAHKSKTH
On to B3, for which, in data set [3], the K0.5 is given as 56.7±2.3(51.9–61.5) uM and the Vmax stood at 0.00091 µmol/min/mg.

B4: UGT1A7 (Homo sapiens) (protein)
chain: GKLLVVPMDGSHWFTMQSVVEKLILRGHEVVVVMPEVSWQLGRSLNCTVKTYSTSYTLEDQDREFMVFADARWTAPLRSAFSLLTSSSNGIFDLFFSNCRSLFNDRKLVEYLKESCFDAVFLDPFDACGLIVAKYFSLPSVVFARGIFCHYLEEGAQCPAPLSYVPRLLLGFSDAMTFKERVWNHIMHLEEHLFCPYFFKNVLEIASEILQTPVTAYDLYSHTSIWLLRTDFVLEYPKPVMPNMIFIGGINCHQGKPVPMEFEAYINASGEHGIVVFSLGSMVSEIPEKKAMAIADALGKIPQTVLWRYTGTRPSNLANNTILVKWLPQNDLLGHPMTRAFITHAGSHGVYESICNGVPMVMMPLFGDQMDNAKRMETKGAGVTLNVLEMTSEDLENALKAVINDKSYKENIMRLSSLHKDRPVEPLDLAVFWVEFVMRHKGAPHLRPAAHDLTWYQYHSLDVIGFLLAVVLTVAFITFKCCAYGYRKCLGKKGRVKKAHKSKTH
As for B4, in data set [3], the K0.5 was 33.2±4.0(24.9–41.6) uM and the Vmax came to 0.00015 µmol/min/mg.

B5: UGT2B15 (Homo sapiens) (protein)
chain: GKVLVWPTEYSHWINMKTILEELVQRGHEVTVLTSSASTLVNASKSSAIKLEVYPTSLTKNYLEDSLLKILDRWIYGVSKNTFWSYFSQLQELCWEYYDYSNKLCKDAVLNKKLMMKLQESKFDVILADALNPCGELLAELFNIPFLYSLRFSVGYTFEKNGGGFLFPPSYVPVVMSELSDQMIFMERIKNMIHMLYFDFWFQIYDLKKWDQFYSEVLGRPTTLFETMGKAEMWLIRTYWDFEFPRPFLPNVDFVGGLHCKPAKPLPKEMEEFVQSSGENGIVVFSLGSMISNMSEESANMIASALAQIPQKVLWRFDGKKPNTLGSNTRLYKWLPQNDLLGHPKTKAFITHGGTNGIYEAIYHGIPMVGIPLFADQHDNIAHMKAKGAALSVDIRTMSSRDLLNALKSVINDPVYKENVMKLSRIHHDQPMKPLDRAVFWIEFVMRHKGAKHLRVAAHNLTWIQYHSLDVIAFLLACVATVIFIITKFCLFCFRKLAKKGKKKKRD
Turning to B5, in data set [1], the K0.5 is listed as 29.6±0.9(27.6–31.5) uM and the Vmax was 0.00083 µmol/min/mg.

B6: UGT1A6 (Homo sapiens) (protein)
chain: DKLLVVPQDGSHWLSMKDIVEVLSDRGHEIVVVVPEVNLLLKESKYYTRKIYPVPYDQEELKNRYQSFGNNHFAERSFLTAPQTEYRNNMIVIGLYFINCQSLLQDRDTLNFFKESKFDALFTDPALPCGVILAEYLGLPSVYLFRGFPCSLEHTFSRSPDPVSYIPRCYTKFSDHMTFSQRVANFLVNLLEPYLFYCLFSKYEELASAVLKRDVDIITLYQKVSVWLLRYDFVLEYPRPVMPNMVFIGGINCKKRKDLSQEFEAYINASGEHGIVVFSLGSMVSEIPEKKAMAIADALGKIPQTVLWRYTGTRPSNLANNTILVKWLPQNDLLGHPMTRAFITHAGSHGVYESICNGVPMVMMPLFGDQMDNAKRMETKGAGVTLNVLEMTSEDLENALKAVINDKSYKENIMRLSSLHKDRPVEPLDLAVFWVEFVMRHKGAPHLRPAAHDLTWYQYHSLDVIGFLLAVVLTVAFITFKCCAYGYRKCLGKKGRVKKAHKSKTH
For the molecule B6, in data set [1], the K0.5 is recorded as 76.4±15.1(45.3–107.5) uM and the Vmax was found to be 0.0052 µmol/min/mg. Also, the K0.5 in data set [2] was 8.07±0.48(7.08–9.06) uM.

B7: UGT1A8 (Homo sapiens) (protein)
chain: GKLLVVPMDGSHWFTMQSVVEKLILRGHEVVVVMPEVSWQLGKSLNCTVKTYSTSYTLEDLDREFMDFADAQWKAQVRSLFSLFLSSSNGFFNLFFSHCRSLFNDRKLVEYLKESSFDAVFLDPFDACGLIVAKYFSLPSVVFARGIACHYLEEGAQCPAPLSYVPRILLGFSDAMTFKERVRNHIMHLEEHLFCQYFSKNALEIASEILQTPVTAYDLYSHTSIWLLRTDFVLDYPKPVMPNMIFIGGINCHQGKPLPMEFEAYINASGEHGIVVFSLGSMVSEIPEKKAMAIADALGKIPQTVLWRYTGTRPSNLANNTILVKWLPQNDLLGHPMTRAFITHAGSHGVYESICNGVPMVMMPLFGDQMDNAKRMETKGAGVTLNVLEMTSEDLENALKAVINDKSYKENIMRLSSLHKDRPVEPLDLAVFWVEFVMRHKGAPHLRPAAHDLTWYQYHSLDVIGFLLAVVLTVAFITFKCCAYGYRKCLGKKGRVKKAHKSKTH
In the case of B7, the figures for the K0.5 in data set [3] and in data set [1] were 73.1±3.7(65.4–80.7) uM and 134±9(115–154) uM, respectively. In addition, the Vmax in data set [3] and in data set [1] was 0.0012 µmol/min/mg in each case.
